For four substances, Kd results are on record in PMC9695642, “Conservation of Importin α Function in Apicomplexans: Ivermectin and GW5074 Target Plasmodium falciparum Importin α and Inhibit Parasite Growth in Culture” (International Journal of Molecular Sciences, 2022).

The target in experiment [1] is His-tagged GCN5-NLS-GFP (NLS of T. gondii histone acetyltransferase GCN5 fused to GFP) (Toxoplasma gondii). Kind of experiment: AlphaScreen or HTRF; biotinylated IMPαs titrated against His-tagged NLS-GFPs (30 nM); apparent dissociation constant. Background: Bead proximity is the source of the signal in Alpha formats.
Experiment [2] deals with His-tagged TGS1-NLS-GFP (NLS of P. falciparum trimethylguanosine synthase fused to GFP) (Plasmodium falciparum). The description is as above.
The target of experiment [3] is His-tagged Toxoplasma gondii importin α (Toxoplasma gondii). Kind of experiment: AlphaScreen or HTRF; His-tagged IMPαs (30 nM) titrated with increasing concentrations of biotinylated GST-MmIMPβ1 (legend: 5 nM).
In experiment [4] the target is His-tagged Mus musculus importin α (Mus musculus) (UniProt P52293). The description is as above.

“Toxoplasma gondii importin α, biotinylated GST fusion protein (natural protein)”: the Kd in experiment [1] was 5 nM; in experiment [2] it was 1.9 nM.

For “biotinylated GST-MmIMPβ1 (Mus musculus importin β1) (from UniProt P70168 1-876)”, in experiment [3], the Kd was 1.2 nM. On to “biotinylated GST-MmIMPβ1 (Mus musculus importin β1) (from UniProt P70168 1-876) (natural protein)”, for which, in experiment [4], the Kd was 2.5 nM. For the substance “mammalian IMPα/β1 heterodimer from M. musculus (from UniProt P52293 1-529; P70168 1-876) (complex)”, the results for the Kd in experiment [1] and in experiment [2] were 3.2 nM and 2.5 nM, respectively.
